Assay results: US20180362625A1 (COMMONWEALTH SCIENTIFIC AND INDUSTRIAL RESEARCH ORGANISATION, published 2018)

Target: T1, interferon response factor 3 (IRF3), endogenous in HeLa cells (human, UniProt Q14653 1-427)
T1 construct: Phosphorylation state after poly(I:C) was not defined for the immunoprecipitated material
T1 sequence (looked up): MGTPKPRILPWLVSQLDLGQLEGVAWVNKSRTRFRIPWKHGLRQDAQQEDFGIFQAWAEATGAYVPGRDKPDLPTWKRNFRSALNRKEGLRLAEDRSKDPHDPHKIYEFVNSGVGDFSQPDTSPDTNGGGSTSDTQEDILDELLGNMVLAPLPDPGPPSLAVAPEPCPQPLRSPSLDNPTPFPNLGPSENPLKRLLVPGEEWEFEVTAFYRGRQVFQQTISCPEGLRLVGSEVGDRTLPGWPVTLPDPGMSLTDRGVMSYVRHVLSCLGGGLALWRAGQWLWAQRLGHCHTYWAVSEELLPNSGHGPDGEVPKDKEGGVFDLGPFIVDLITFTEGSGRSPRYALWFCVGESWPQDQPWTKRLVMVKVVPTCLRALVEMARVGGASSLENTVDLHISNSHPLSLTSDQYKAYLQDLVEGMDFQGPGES
Experiment: co-immunoprecipitation from HeLa lysates with immobilised anti-IRF3 antibody, western blot, -/+ poly(I:C)
Method: Immunoprecipitation and cell fractionation: For immunoprecipitation, 25 μg of antibody was coupled to 50 μg of agarose beads using the Pierce direct immunoprecipitation kit as specified by the manufacturers (Life Technologies). Cells were lysed in NP-40 lysis buffer provided and pre-cleared with a non-specific isotype agarose control at 4° C. for 1 hour, then incubated with ˜1.5 μg agarose-coupled antibody at 4° C. overnight. Resin was washed multiple times then elution performed using non-reducing sample buffer (containing 2% w/v SDS) at 100° C. for 10 mins. Cytosolic and nuclear fractions were prepared from cells using the Pierce NE-PER cell fractionation kit (Life Technologies) as specified by the manufacturers, and total protein quantitated by BCA assay (Life Technologies) before western blot analyses.
To access whether C6orf106 binds IRF3, C6orf106-flag was co-expressed with GFP −/+ poly(I:C) as described above, then performed a direct co-immunoprecipitation with immobilised IRF3 antibodies. As shown in FIG. 10A C6orf106 could be detected in IRF3-immunoprecipitated lysates, and this was increased approximately four-fold in the presence of poly(I:C). […] Cells were lysed and subjected to […] immunoprecipitation with an anti-IRF3 antibody. IP samples and input controls were probed with anti-FLAG antibody for western blotting. […]

- fold increase of C6orf106 co-immunoprecipitated with IRF3 in the presence of poly(I:C) versus without: ~4 fold
B1: Flag-tagged C6orf106 (C6orf106-FLAG, expressed from pCAGGs-C6-FLAG) (other)
chain: MEGMDVDLDPELMQKFSCLGTTDKDVLISEFQRLLGFQLNPAGCAFFLDMTNWNLQAAIGAYYDFESPNISVPSMSFVEDVTIGEGESIPPDTQFVKTWRIQNSGAEAWPPGVCLKYVGGDQFGHVNMVMVRSLEPQEIADVSVQMCSPSRAGMYQGQWRMCTATGLYYGDVIWVILSVEVGGLLGVTQQLSSFETEFNTQPHRKVEGNFNPFASPQKNRQSDENNLKDPGGSEFDSISKNTWAPAPDTWAPAPDQTEQDQNRLSQNSVNLSPSSHANNLSVVTYSKGLHGPYPFGQSGDYKDDDDK
notes: Over-expressed in HeLa or HEK293T cells and tested in cell lysates by co-immunoprecipitation
